Target: HA-p68 (wild type) (UniProt P17844)
Chain of UniProt P17844 (P17844 whole entry): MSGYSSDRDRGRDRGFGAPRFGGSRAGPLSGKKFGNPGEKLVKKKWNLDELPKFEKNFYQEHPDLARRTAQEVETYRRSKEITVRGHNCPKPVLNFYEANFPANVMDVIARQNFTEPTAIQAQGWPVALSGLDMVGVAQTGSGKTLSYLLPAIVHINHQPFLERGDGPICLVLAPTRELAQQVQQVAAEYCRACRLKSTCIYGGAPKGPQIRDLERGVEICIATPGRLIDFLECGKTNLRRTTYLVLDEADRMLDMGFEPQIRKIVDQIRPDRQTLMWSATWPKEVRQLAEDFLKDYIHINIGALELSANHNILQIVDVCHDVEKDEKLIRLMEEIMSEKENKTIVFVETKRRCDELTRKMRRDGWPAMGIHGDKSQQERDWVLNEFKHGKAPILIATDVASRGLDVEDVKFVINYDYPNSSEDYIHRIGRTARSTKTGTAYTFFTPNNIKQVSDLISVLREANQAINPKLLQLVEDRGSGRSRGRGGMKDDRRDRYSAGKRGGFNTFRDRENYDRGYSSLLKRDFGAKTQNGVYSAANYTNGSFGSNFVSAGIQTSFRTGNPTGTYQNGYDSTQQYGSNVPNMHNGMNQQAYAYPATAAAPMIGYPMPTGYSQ

Question: “Rhodamine labeled microtubule (from UniProt P02550;P02554) (complex)” was tested. Which microtubule gliding assay, p68/Ca^2+-CaM (ATP): % of gliding microtubules (n=50) did it give?
Answer: The microtubule gliding assay, p68/Ca^2+-CaM (ATP): % of gliding microtubules (n=50) was 74.2%.

Question: What about the microtubule gliding assay, p68/Ca^2+-CaM (ATP): maximum gliding speed of the same substance?
Answer: Its microtubule gliding assay, p68/Ca^2+-CaM (ATP): maximum gliding speed is 0.52 µm/min.

Question: What about the microtubule gliding assay, p68/Ca^2+-CaM (ATP): mean gliding speed of the same substance?
Answer: The microtubule gliding assay, p68/Ca^2+-CaM (ATP): mean gliding speed was 0.16 µm/min.

From publication PMC3552336
